Target: JR-CSF gp120 N276A (HIV-1) (UniProt P20871)
Assay: cell-based or functional assay

VRC01 (antibody)
increase in neutralization potency: 4 fold

— patent publication US9382311
